Consider one molecule from patent US20180071385A1 (LEIDOS, published 2018).

The test addresses human PD-1 on Jurkat cells (human, UniProt Q15116 25-288). The test can be described thus: cell-based or functional assay.

Sequence of human PD-1 on Jurkat cells (Q15116 25-288): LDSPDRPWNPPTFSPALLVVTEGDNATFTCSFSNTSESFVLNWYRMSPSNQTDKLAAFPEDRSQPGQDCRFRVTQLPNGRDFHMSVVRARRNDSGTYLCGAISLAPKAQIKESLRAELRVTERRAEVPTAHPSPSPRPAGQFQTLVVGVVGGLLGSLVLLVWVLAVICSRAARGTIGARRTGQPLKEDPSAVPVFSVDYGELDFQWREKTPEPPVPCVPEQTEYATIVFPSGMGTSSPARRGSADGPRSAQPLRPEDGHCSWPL

In the case of QTRTVPMPKIHHPPWQNVVP [peptide QP20], the “EC50 (read off the curve), Fold Inhibition of RLU” value is about 8 µM.
